B1: RAGE C2 domain-only fragment (residues 235-404) (domain or fragment, UniProt Q15109 235-404, looked up)
chain: LEEVQLVVEPEGGAVAPGGTVTLTCEVPAQPSPQIHWMKDGVPLPLPPSPVLILPEIGPQDQGTYSCVATHSSHGPQESRAVSISIIEPGEEGPTAGSVGGSGLGTLALALGILGGLGTAALLIGVILWQRRQRRGEERKAPENQEEEEERAELNQSEEPEAGESSTGGP
notes: RAGE C2 domain-only fragment, residues 235-404 (C2 domain with the transmembrane helix and the cytosolic portion); also called C2 fragment; source: CHO-CD14, transfected, expressed on the cell surface, in membrane extracts
B2: canonical full-length RAGE from mouse lung (receptor, mouse (endogenous in lung), UniProt Q62151 23-402, looked up)
chain: GQNITARIGEPLVLSCKGAPKKPPQQLEWKLNTGRTEAWKVLSPQGGPWDSVARILPNGSLLLPATGIVDEGTFRCRATNRRGKEVKSNYRVRVYQIPGKPEIVDPASELTASVPNKVGTCVSEGSYPAGTLSWHLDGKLLIPDGKETLVKEETRRHPETGLFTLRSELTVIPTQGGTHPTFSCSFSLGLPRRRPLNTAPIQLRVREPGPPEGIQLLVEPEGGIVAPGGTVTLTCAISAQPPPQVHWIKDGAPLPLAPSPVLLLPEVGHEDEGTYSCVATHPSHGPQESPPVSIRVTETGDEGPAEGSVGESGLGTLALALGILGGLGVVALLVGAILWRKRQPRREERKAPESQEDEEERAELNQSEEAEMPENGAGGP
notes: mouse RAGE, the canonical full-length isoform of lung tissue; source: endogenous, crude membrane fraction of wild-type (C57BL/6) mouse lung

What was measured:
[1] = target: the molecule itself; assay: non-reducing SDS-PAGE with immunoblot; membrane extracts of transfected CHO-CD14 cells; DTT omitted from the loading buffer, 2% LDS, 80°C for 10 min, NuPAGE 4-12% Bis-Tris gel
[2] = target: the molecule itself; assay: non-reducing SDS-PAGE with immunoblot; crude membrane fraction of mouse lung (homogenised with 20 mM N-ethylmaleimide), 15 µg, 4-12% gradient gel, reducing and non-reducing, IB with anti-RAGE; RAGE knockout lung as control

Protein	stoichiometry N [1]	stoichiometry N [2]
B1	2	
B2		2

— publication PMC3524233, “Disulfide Bonds within the C2 Domain of RAGE Play Key Roles in Its Dimerization and Biogenesis” (PLoS ONE, 2012)
